Laboratory results taken from patent publication CN114605536A.

Molecular target: 天然TSLP
Assay: cell-based or functional assay

抑制天然TSLP诱导的SW756-STAT5-Luciferase报告基因细胞STAT5磷酸化活性的IC50: 1.45 ng/mL
Substance: Tezepelumab (antibody)
